Experimental findings from patent publication US20250230224A1 (University of California, published 2025) are described below.

The assay deals with T1, BoNT/F1 (UniProt A7GBG3 1-1278).
T1 sequence: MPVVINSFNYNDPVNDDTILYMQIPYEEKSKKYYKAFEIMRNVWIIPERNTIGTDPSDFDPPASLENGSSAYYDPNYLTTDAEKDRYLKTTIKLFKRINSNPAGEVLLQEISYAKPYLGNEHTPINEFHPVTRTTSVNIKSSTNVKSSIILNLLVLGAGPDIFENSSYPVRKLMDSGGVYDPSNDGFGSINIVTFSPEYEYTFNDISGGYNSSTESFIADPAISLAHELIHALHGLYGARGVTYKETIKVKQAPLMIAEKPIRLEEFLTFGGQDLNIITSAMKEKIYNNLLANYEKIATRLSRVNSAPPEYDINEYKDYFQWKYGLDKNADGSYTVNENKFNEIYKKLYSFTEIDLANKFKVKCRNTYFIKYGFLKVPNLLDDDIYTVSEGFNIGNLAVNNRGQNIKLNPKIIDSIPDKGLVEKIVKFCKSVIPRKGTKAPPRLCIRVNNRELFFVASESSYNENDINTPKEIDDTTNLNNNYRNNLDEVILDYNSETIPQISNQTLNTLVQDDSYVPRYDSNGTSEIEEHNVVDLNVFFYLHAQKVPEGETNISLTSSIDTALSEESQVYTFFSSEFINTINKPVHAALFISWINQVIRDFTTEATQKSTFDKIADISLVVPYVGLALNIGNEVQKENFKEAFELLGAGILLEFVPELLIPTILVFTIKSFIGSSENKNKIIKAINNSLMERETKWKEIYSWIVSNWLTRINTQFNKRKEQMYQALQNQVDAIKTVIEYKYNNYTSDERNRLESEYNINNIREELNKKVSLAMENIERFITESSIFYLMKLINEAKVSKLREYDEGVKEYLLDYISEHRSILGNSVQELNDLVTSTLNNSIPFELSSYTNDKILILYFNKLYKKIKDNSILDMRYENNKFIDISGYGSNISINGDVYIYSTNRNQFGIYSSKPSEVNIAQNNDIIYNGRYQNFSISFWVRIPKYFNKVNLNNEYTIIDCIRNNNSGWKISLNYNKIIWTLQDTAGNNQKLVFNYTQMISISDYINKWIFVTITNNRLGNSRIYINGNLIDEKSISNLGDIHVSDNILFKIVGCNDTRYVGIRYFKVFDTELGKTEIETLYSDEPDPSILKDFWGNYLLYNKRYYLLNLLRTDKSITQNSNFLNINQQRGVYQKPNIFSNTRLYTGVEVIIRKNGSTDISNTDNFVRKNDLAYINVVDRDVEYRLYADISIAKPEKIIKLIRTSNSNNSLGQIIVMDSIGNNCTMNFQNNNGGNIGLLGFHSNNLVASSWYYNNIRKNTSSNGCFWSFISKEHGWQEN
The assay is described as follows: KinExA, IgG.

B1: Hu6F11 IgG (antibody, V domains shown)
VH: EVQLVESGGGLVKPGGSLRLSCAASGFTFSNYGMSWVRQAPGKGLEWVASISSGGSYIYYPDSVKGRFTISRDNAKNSLYLQMNSLRAEDTAVYYCARRKGYDSLYWYFDVWGQGTLVTVSS
VL: DVVMTQSPSSLSAFVGDRVTITCRASQGIRSYLAWFQQKPGKAPKLLIYAASTLQSGVPSRFSGSGSGTEFTLTVSGLQPEDFATYYCQQYNSYPLTFGGGTRLEIKR
As to B1, the equilibrium dissociation constant (Kd) (in general, the equilibrium constant for the complex coming apart) stood at 0.00071 nM.

B2: 6F5.4 IgG (antibody, V domains shown)
VH: EVQLVPSGGNLVQPGGSLRLSCAATGPIDYHWMTWVRQAPGQGLEWVANINLDGTEKFYVDSVKGRFTVSRDNRKSSVFLQMNNLRVDDTAVYYCARLQWGERDGWLSPWGQGTLVTVSS
VL: DIVMTQSPPSLSASVGDRVRLTCRASQSIGRSLNWYQQKPGKAPKLLIYDASALHSGVPSRFSGSGSGTDFTLTISGLQPEDFATYYCQQTNDLPVTFGGGTKLEIKR
In the case of B2, the affinity, expressed as Kd, was 0.0149 nM.

B3: Hu6F13.4 IgG (antibody, V domains shown)
VH: QVQLVQSGAEVKKPGASVKVSCKASGYSFTSYWMHWVRQAPGQGLEWIGFINPINGGIIYNEKFRFRATLTVDTSISTAYMELSRLRSDDTAVYYCARAGYYGSSRHFDVWGQGTLLTVSS
VL: ETTLTQSPSSLSASVGDRVTITCRASQGIRNYLAWYQQKPGKAPKLLIYDASNLETGVPSRFSGSGSGTDFTFTISSLQPEDFATYYCLQTSSTPWTFGQGTKVDIKR
B3 showed a Kd of 0.173 nM.
